Test results taken from article PMC6414729.

Columns and labels:
[1] = substrate: CB-PB phycobilisome (truncated phycobilisome of the CB mutant of Synechocystis PCC 6803) (Synechocystis PCC 6803) (UniProt Q01951)
[2] = substrate: CB-PB phycobilisome (truncated phycobilisome of the CB mutant of Synechocystis PCC 6803) (Synechocystis PCC 6803) (UniProt Q01951); remark: listed apart in the source
[3] = compound: CB-PB phycobilisome (truncated phycobilisome of the CB mutant of Synechocystis PCC 6803) (Synechocystis PCC 6803) (UniProt Q01951); assay: ABEL trap single-molecule fluorescence spectroscopy; pre-activated and pre-bound OCP + CB-PB (40:1) diluted to ~10 pM in 0.8 M phosphate buffer pH 7.5 with 1 M sucrose; single complexes in free solution; followed up to 5 h after dilution
[4] = substrate: CB-PB phycobilisome (truncated phycobilisome of the CB mutant of Synechocystis PCC 6803) (Synechocystis PCC 6803) (UniProt Q01951); assay: bulk fluorescence quenching (emission spectrum and lifetime decay); OCP:CB-PB 40:1 in 0.8 M phosphate buffer, illuminated with white light 10 min at 23 °C; bulk sample ~25 nM

brightness of quenched state Q1 relative to unquenched CB-PB [1]: 11%
brightness of quenched state Q2 relative to unquenched CB-PB [1]: 6%
bulk fluorescence emission of fully quenched OCP + CB-PB (40:1) relative to unquenched CB-PB [2]: 9%
bulk fluorescence lifetime, shorter component of the quenched OCP + CB-PB complex (unquenched 1.6 ns) [2]: 0.1 ns
stoichiometry N [3]: 2
percent of complexes quenched [4]: > 95%
B1: Orange Carotenoid Protein, photoactivated red form (OCP^R) (natural protein)
chain: MPFTIDSARGIFPNTLAADVVPATIARFSQLNAEDQLALIWFAYLEMGKTLTIAAPGAASMQLAENALKEIQAMGPLQQTQAMCDLANRADTPLCRTYASWSPNIKLGFWYRLGELMEQGFVAPIPAGYQLSANANAVLATIQGLESGQQITVLRNAVVDMGFTAGKDGKRIAEPVVPPQDTASRTKVSIEGVTNATVLNYMDNLNANDFDTLIELFTSDGALQPPFQRPIVGKENVLRFFREECQNLKLIPERGVTEPAEDGFTQIKVTGKVQTPWFGGNVGMNIAWRFLLNPEGKIFFVAIDLLASPKELLNFA
